Measured values as given in patent US20080301824A1.

Tests used:
[1] = molecular target: GAL4 binding domain-parkin(1-465) fusion encoded by pGBT9-parkin(1-465) (UniProt P04386); experiment: cell-based or functional assay
[2] = molecular target: GFP-syt11 (GFP-tagged full-length human synaptotagmin XI) (human) [GFP: P42212]; experiment: co-IP with anti-HA agarose from HEK293 cells, anti-GFP blot

Row | Substance | β-galactosidase activity in yeast two-hybrid liquid assay, against pGAD10-hsyt11AB with pGBT9 vector control [1] [fold] | fold less interaction than parkinC418R [2] [fold less]
1 | GAL4 activation domain-hsyt11AB fusion encoded by pGAD10-hsyt11AB (human synaptotagmin 11, domains C2A and C2B) (from UniProt Q9BT88 157-431) | 20 | 
2 | HA-tagged parkin with missense mutation C289G (from UniProt O60260 1-465) (enzyme) |  | 2.5
